Consider two molecules from patent publication US20260097113A1 (Pfizer, published 2026).

For assay [1], the target named is RSV A + RSV B bivalent composition (RSV subtype A; RSV subtype B). Put plainly: AM14 Fab titration by SEC; composition of Table 14; Freezing Ramp Aggressive cycle.
The target is the same in assay [2]. Nature of the assay: AM14 Fab titration by SEC; Target cycle; 1 M 25°C.
The target is the same in assay [3]. Put plainly: AM14 Fab titration by SEC; Target cycle; 1 M 25°C (second value).
For assay [4] the target is unchanged. Nature of the assay: AM14 Fab titration by SEC; High-Slow 2 cycle; 1 M 25°C.
Assay [5] shares this target. Nature of the assay: AM14 Fab titration by SEC; Low-Fast cycle; 8 M 40°C.
Assay [6] has the same target. Nature of the assay: AM14 Fab titration by SEC; High-Slow 1 cycle; 3 M 25°C.
The target is the same in assay [7]. Nature of the assay: AM14 Fab titration by SEC; Low-Fast cycle; 8 M 25°C.
In assay [8] the target is T1, RSV F protein of subtype A comprising a polypeptide of SEQ ID NO: 1 and a polypeptide of SEQ ID NO: 2 (RSV subtype A, UniProt P11209 137-513; P03420 26-109).
T1 construct: Stabilized prefusion F trimer made of three F2-F1 heterodimers; Produced recombinantly in CHO cells; also called RSV A; RSVA
T1 chain 1: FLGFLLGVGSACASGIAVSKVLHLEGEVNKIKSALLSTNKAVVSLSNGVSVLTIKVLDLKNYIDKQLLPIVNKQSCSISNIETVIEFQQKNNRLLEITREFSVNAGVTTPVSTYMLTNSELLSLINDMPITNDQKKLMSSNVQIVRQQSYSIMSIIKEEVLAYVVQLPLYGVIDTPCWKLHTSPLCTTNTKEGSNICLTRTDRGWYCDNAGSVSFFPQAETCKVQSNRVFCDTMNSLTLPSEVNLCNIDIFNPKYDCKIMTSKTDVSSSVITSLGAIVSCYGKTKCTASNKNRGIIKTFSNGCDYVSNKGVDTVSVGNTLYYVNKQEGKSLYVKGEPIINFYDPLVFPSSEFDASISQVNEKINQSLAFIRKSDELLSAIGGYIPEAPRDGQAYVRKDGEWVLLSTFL
T1 chain 2: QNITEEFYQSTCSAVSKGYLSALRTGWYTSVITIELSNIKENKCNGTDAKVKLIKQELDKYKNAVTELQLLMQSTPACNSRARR
Nature of the assay: AM14 ELISA; F14 (pH 7, 50 mM NaCl, 4.5% sucrose); 2 wk 5°C.

Assay [9] concerns the target T1, RSV F protein of subtype A comprising a …. Nature of the assay: AM14 ELISA; F1 (pH 8, 100 mM NaCl, 0% sucrose); 1 wk 5°C.
The target is the same in assay [10]. Nature of the assay: AM14 ELISA; F17 (pH 7, 50 mM NaCl, 4.5% trehalose); 2 wk 25°C.
For assay [11] the target is unchanged. Put plainly: AM14 ELISA; F19 (pH 7, 50 mM NaCl, 3% trehalose + 3% mannitol); 1 wk 25°C.
Assay [12] shares this target. Put plainly: AM14 ELISA; F10 (pH 7, 50 mM NaCl, 4.5% sucrose); 1 wk 5°C.
Assay [13] shares this target. Nature of the assay: AM14 ELISA; F12 (pH 8, 100 mM NaCl, 9.0% sucrose); 2 wk 5°C.
For assay [14] the target is unchanged. Nature of the assay: AM14 ELISA; F2 (pH 8, 0 mM NaCl, 0% sucrose); 1 wk 25°C.
For assay [15] the target is unchanged. Nature of the assay: AM14 ELISA; F11 (pH 7, 50 mM NaCl, 9.0% sucrose); 1 wk 5°C.
Assay [16] has the same target. Nature of the assay: AM14 ELISA; F1 (pH 8, 100 mM NaCl, 0% sucrose); T0.
The target is the same in assay [17]. Nature of the assay: AM14 ELISA; F5 (pH 6, 100 mM NaCl, 9.0% sucrose); 1 wk 25°C.

For the molecule AM14 Fab, the Prefusion Content (%) was 62% in [1]; 65% in assay [2]; 65% in assay [3]; 72% in assay [4]; 63% in assay [5]; 53% in assay [6]. Further, the Prefusion Content (%) in assay [7] amounted to 76%.

B1: AM14 (trimeric prefusion specific antibody of the AM14 ELISA) (antibody, V domains shown)
VH: EVQLVESGGGVVQPGRSLRLSCAASGFSFSHYAMHWVRQAPGKGLEWVAVISYDGENTYYADSVKGRFSISRDNSKNTVSLQMNSLRPEDTALYYCARDRIVDDYYYYGMDVWGQGATVTVSS
VL: DIQMTQSPSSLSASVGDRVTITCQASQDIKKYLNWYHQKPGKVPELLMHDASNLETGVPSRFSGRGSGTDFTLTISSLQPEDIGTYYCQQYDNLPPLTFGGGTKVEIKR
notes: Antibody as used in the AM14 ELISA, detected with an HRP-labeled secondary antibody
On to B1, for which the “AM14 prefusion content (%), relative to standard” value came to 78% in [8]; 96% in assay [9]; 64% in assay [10]; 75% in [11]; 93% in [12]; 72% in assay [13]. Besides, the “AM14 prefusion content (%), relative to standard” value in [14] was determined as 58%; in [15] it was 101%; in [16], 120%; in assay [17], 97%.
